Source: US20030007991A1, “Devices including protein matrix materials and methods of making and using thereof” (priority 1998, published 2003)

System: xanthine oxidase
Test: In vitro enzyme activity of xanthine oxidase in a protein matrix array piece (Sigma Enzymatic Assay of Superoxide Dismutase protocol, spectrophotometer)
Format: biochemical
Conditions: absorbance measured at 550 mm, cytochrome C and other reactants, no enzyme activity produces 0.00000 change

xanthine oxidase
enzyme activity of xanthine oxidase (change in absorbance): 0.0250 delta absorbance/min
